# Test results as given in PMC3326331 (Nucleic Acids Research, 2011).
# T1: His6-tagged human PSF (polypyrimidine tract binding protein associated splicing factor) (human, UniProt P23246 1-707)
# T1 sequence (looked up): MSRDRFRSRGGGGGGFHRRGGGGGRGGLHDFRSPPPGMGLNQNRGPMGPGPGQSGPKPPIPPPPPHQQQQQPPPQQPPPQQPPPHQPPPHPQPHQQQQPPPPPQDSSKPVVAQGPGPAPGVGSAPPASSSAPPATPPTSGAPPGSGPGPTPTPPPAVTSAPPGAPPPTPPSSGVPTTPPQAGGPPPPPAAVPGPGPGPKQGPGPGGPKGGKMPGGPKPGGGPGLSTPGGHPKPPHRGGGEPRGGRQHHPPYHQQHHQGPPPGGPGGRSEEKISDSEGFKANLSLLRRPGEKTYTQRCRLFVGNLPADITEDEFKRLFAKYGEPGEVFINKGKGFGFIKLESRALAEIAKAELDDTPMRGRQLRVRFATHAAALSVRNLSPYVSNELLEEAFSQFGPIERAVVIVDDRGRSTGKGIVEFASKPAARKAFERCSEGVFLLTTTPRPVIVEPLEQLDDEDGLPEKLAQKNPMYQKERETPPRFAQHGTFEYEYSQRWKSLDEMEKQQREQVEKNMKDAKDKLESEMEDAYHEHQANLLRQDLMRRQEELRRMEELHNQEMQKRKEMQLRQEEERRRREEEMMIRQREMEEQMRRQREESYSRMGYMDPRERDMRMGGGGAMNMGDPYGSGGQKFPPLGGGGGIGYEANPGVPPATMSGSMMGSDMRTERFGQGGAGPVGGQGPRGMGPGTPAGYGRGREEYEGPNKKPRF
# Target: T1, His6-tagged human PSF (polypyrimidine …)
# Experiment: pull-down
row,binding result,Binder
1,binds,"human RAD51 (natural protein, UniProt Q06609 1-339, looked up) MAMQMQLEANADTSVEEESFGPQPISRLEQCGINANDVKKLEEAGFHTVEAVAYAPKKELINIKGISEAKADKILAEAAKLVPMGFTTATEFHQRRSEIIQITTGSKELDKLLQGGIETGSITEMFGEFRTGKTQICHTLAVTCQLPIDRGGGEGKAMYIDTEGTFRPERLLAVAERYGLSGSDVLDNVAYARAFNTDHQTQLLYQASAMMVESRYALLIVDSATALYRTDYSGRGELSARQMHLARFLRMLLRLADEFGVAVVITNQVVAQVDGAAMFAADPKKPIGGNIIAHASTTRLYLRKGRGETRICKIYDSPCLPEAEAMFAINADGVGDAKD"
2,binds,"human DMC1 (natural protein, UniProt Q14565 1-340, looked up) MKEDQVVAEEPGFQDEEESLFQDIDLLQKHGINVADIKKLKSVGICTIKGIQMTTRRALCNVKGLSEAKVDKIKEAANKLIEPGFLTAFEYSEKRKMVFHITTGSQEFDKLLGGGIESMAITEAFGEFRTGKTQLSHTLCVTAQLPGAGGYPGGKIIFIDTENTFRPDRLRDIADRFNVDHDAVLDNVLYARAYTSEHQMELLDYVAAKFHEEAGIFKLLIIDSIMALFRVDFSGRGELAERQQKLAQMLSRLQKISEEYNVAVFVTNQMTADPGATMTFQADPKKPIGGHILAHASTTRISLRKGRGELRIAKIYDSPEMPENEATFAITAGGIGDAKE"
